Experiment: protease stability score; higher = more stable; yeast display proteolysis, trypsin and chymotrypsin;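 note: relative to predicted unfolded state with 0 unfolded-like and 1 meaning tenfold more protease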

EEEKEIAEELIRRIRESLRTGDEDLKHKLADPNVRHIFNGRNNHGREEMLRTLEELIKQFGVENIDIELHDWDHVDGRLHIHVRVRYGDYMMHLRIEAEKVNGRWQSETVELR
protease stability score: 1.23

EEEKESHQWILEVYMHTVRTGDPRMIKELLDPNVKLEAENREVHGREHVLKILWTKLHEMRIEHVTVEDVEVQGNKVRVHNEVHYTFDGQRDILKTEVIATKFDGRWHFKSLREK
protease stability score: 0.222

EEEKETERIASEHHLEHLRTGDEETYLRNFDPHVRLDIDGREFHGWEFFRHFLRRMGFKHVRHIQIHHSELFNGRLFFDGTIRFRVGDKEDTFKVEVVDVKFNGRWHIQEFRVK
protease stability score: 1.43

EEEKHLLRRIVRELTESERTGDEDHLDKLLDPHARTNVNGVDFHGREDWRKWTEEFFRRVDHIEFRIEDIKIINGVAIVDTRITMHIGDKHIHFELEIKNVIIDGRVKELRIKFK
protease stability score: 0.91

EEEKKETEHWIETFYRIINTGDEETWSKMADPDMRLEVLIDGKKLELHGRDAFEDFVSKMGFDHVHIHDMEVIGEKAHIHTELRYGDKHIRFEIQLVVVNGRYKSVTIRRK
protease stability score: 1.75

EEEKKNRAHQFLKAVERGDPEELRKQFDPNAHARVGDKRYHGMEEWAKDVMRRVRELRMSIKRLSVDVQGNDVKVNMNLVINRNGKPKEFREVWYFKIHNGHFVELHVQEEP
protease stability score: 1.24

EEEKRISDRSLEHLVRSWWTGDEQLYTELADPNVRVEIGDKEYHGREDARHALRRELEHIRIKHIVYRRFEFVGEYIHVDTRMLVDVNGVHILRTMHILEFKFDGRWHLTSLIIR
protease stability score: 1.21

EEELELAKKIADTFNHDMETGDEKSRWDLFDPNVRIDWNGKDLHGWEQEEEELERLGITKVELEIKRKEVQGDKVILDGTVRFNGRSTRVHVHIRVVNGRLKSIKIIIR
protease stability score: 0.345

EEEQEDSEWATKLFIEVLETGDEHTSEHLADPDTRVEFNGKILHGREEWNKIVRKVKNARIHFDHIRVQGDKINVDTTVEVDGKRMKFHIISRKFNGVWFLQSIHIK
protease stability score: 2.07

EEEREIHQRHWEERLRAHRTGDEETLERQADPDVRIDFNGVELHGREVAVRFLLEMRLHDVDWRRIHTFDGRVDVDVIVDGEYNGRRYRSTFTLVIIKVNGQWLVHSMEFK
protease stability score: 0.244

EEERERAKDVFELLWDIEKTGDEDTFTKLADPNVRTHVGDKHFHGRELVAKWLVDVLRELRVHDIEIKSETVINGRNIVDGVLDGHINGRTVKMTTEILILVINGRIREIDIRIL
protease stability score: 0.825

EEERETDHRLTEKLRRIIRTGDEEEWSKLVDPNTRVIYGDKQDHGWEAWVRILKDLGAKHIDIEHVDIVNGRVEIHSHLTIGDKHVIIHHRIVHINGKLTEIYIEIHHK
protease stability score: 0.694

EEERKEVKFAFDIWSELFLTGDEEDIHHLADPDVRLDINGKNIHGMELIHKIILHDILEWRLEVRVKHIEVQGDKAEIQMELKFRYNGREKHYKFRIIYKKFDGQWRYESIHMR
protease stability score: 1.71

EEERRDAEIALTVIEHHWETGDEKDLDEMLDPDVRVIINGQRYHGREWLSRFREDLGATYHDVHVDDIRIYDGRVEMDFHVRGKVGDKERDTRVRIFMIKFDGRWVVEQITLE
protease stability score: 1.95

EEESKVASDIIELHMRFLLTGNWEMFLRLADPHVRIETEDHRDHGRDWYEKLFRHIRSHVEDMRIKHVELQGDKLHAHGSVRLLIVDGDKYIEVEVDFRFIFDKVNGKWILSSIHLK
protease stability score: 2.29

EEHHEITKDLIELLERTMKTGDEDILRKMADPHTKVEQGDKRIIGRDEFQEEWVEWMRRVDHAEVRLTDFREFPNHLELHGTLDVNINGRDIRIEIQIIVSKFDGRWSLHSISFR
protease stability score: 0.107

EEHYEDMHHAMELFIHAVRTGDEHTLSRMLDPNTRIRIDGVHLIGREQAVKWWLELYKKFPNMRLNLKRIDIFDGKLHVDLETNINGVRLDSHLLISKVDGQWRVDSIQHE
protease stability score: 1.5

EEIHKHLKELFVRWMKELVTGNEDSFKDLFDPHTRIHMHIGDKEIHAHGRKHLEDMILRFKGLRVEFRVEDSTAIGDKAHADFHLIIHVDGKNITTREEVRISVIDGKIREVHHHIN
protease stability score: 1.36

EEIIDLMERLAYLWHHWLTTGNEEMLSKFLDPHARIVIGDKIYHGREKIHEELRRHLERFDHIEFRLRHTEVQGNKIHNHGELKLRIGNYTVHYETRFELQIYDGKIHEFQVKID
protease stability score: 1.73

EEKEEIDRREMKRFMKAFETGDEHELKELFDPHARVHVGDKVHIGRHNFLRWFKEWIEKYKNVRIELDDVEYQGEKLHLDLTVEINGRRTTQDLVIYKIDGRWLFKNIHVH
protease stability score: 0.607

EELERDMDHWIELVIKLRKTGDWRQLAEMVDPNVRVDVNGVQIHGRESIEELLKRLGIDNVEVSLRDKDRQGEKMIVDMELHYNGKRHETKYIALKINGKWIFETITIR
protease stability score: 1.38

EELERDSKEVAERLLWDTLTGDEDLLLHLMDPHVRHIVNGVKLHGREALERAIEEHLSHLGIDHIRIRHIDFRIINGKMDVHIHGESIYNGRVVHMIIIFISTKVNGKWVLEELSIEIR
protease stability score: 1.85

EEMERDIKHAVEVMIRFWETGDERLLTELADPDTKSKIDGRTFHGREDIHKLFHSVIEKVKNIRIEFKRISVQGDKAKIDGTNNFNGREIKTDITLWKFDGRWILESIEIG
protease stability score: 1.43

EENREITEKIMRHWLTLFLTGDFERLIELMDPEVKFLIDGRELHGWEVWRKLMTLTIRRYKNIRIHITSIDVFENHTHVETYENVNGVHIDTRLNLFLVNGRIQSIEMDTK
protease stability score: 1.7

EERERLAEELARIWLEVLETGDWKMLHDLADPNVRNVVGDKEQHGREEMSRFYTEWHEHIRIHRIEIESIDIQGNKIQIHGRIDMEINGKRRDQRLEIIIIVINGRIKRLEVRLH
protease stability score: 0.948

EERKESIRLAVEMIEHVFKTGNPEDEMSLFDPHAKLDVGDKHFHGREEYSRWSEEVRRRYGADHIEFRIEDVHSQGDFVDIHGKEVYIYNGVTFVIDVHFHVLKVNGRWLIKHIRIN
protease stability score: 1.3

EERNKFAEDFSRIDTESHRTGDEHSLLRLFDPHARIHQGDFEMHGWEEFSRIMRHEIERYKNATFEVRVDRVDVQGDKMISDGRLHIHQGDKIREYRIFIIVTKVNGQWHIEEVHIV
protease stability score: 1.11

EESEKSAEDATRLIIHMLETGDERLMKHLMDPDVRIEIGEYISIGRENVEELFREWRSKLGIKHIEVKRVRIEVQGNKVHIEMDTRLIVGDKEEETILRVDVVKINGRWYIKSMRLEIR
protease stability score: 1.95

EESEKSAKLLLDWLFRHLITGNEETFQHFADPNARVDQGEKDSHGMEWVRLVLEEIRIDNMHVRDFRIFEGRLIIDTEIRIKYNGVEMTIKVTVVSEKVNGKWRMKSMHVN
protease stability score: 1.04

EETREASRIALEIFIRDLVTGNEDSLERLADPDTKFIINGRNYHGMEFLREEIRKWLERFKNIRVEVKVHHQRVFENHIEMDGRLDFNYDGQKEILEVRLFMVKFNGKWYIHSIEIR
protease stability score: 2.24

EEVEEEVERATRRHVVDLLTGNWDKLIHEMDPNTYLLINGVKFHGREVYEILLREFIRKYKNARYHITVRDYHVQGDKAIIDMEIRIRIGDKEHHIDSELILRKVDGKWFMQEERII
protease stability score: 2.65

EEWEKAIKFAVKLYKEIMETGDEDMQSHLFDPNVRISVGNKERHGMEEVTKIMTEWRLDDHHVNHVELQGNKVSSDGEINGTFDGRRHRVRIVLIILKVNGVWRIEEVRVI
protease stability score: 0.162

EEWRDHVHHLLELMLHLWRTGDEEIFHRLLDPDTLVRVNGVEFHGRDAMHHVLHRLIEELGINHYRESDFDIQGNKAFHHGELRVNGKTVLEEQRYVIFNGKIKEIRITLH
protease stability score: 0.271

EHEDELKHFIHELWKYASDTGDFRTELLLLDPNAKVQVGDKEYHGREWLEFELRRLGVDRIIKEIHIHHEHEQGDKLEIRGELHLLFNGKRIVIDVKLFFLKIDGKWFNRHIIIK
protease stability score: 1.75

EHEEEHTRHFMHFFIEMVETGDETALHKLLDPNAKYIQGDKHLVGRELMVEWMEELVRRFKNIRVHITEIERQGDKARVDEKWDINGKKIKTELIITKIDGQWRIHEIRVK
protease stability score: 1.23

EHLIEELREMTERIVETILTGDEKHLADLADPNTRSHTHIGDKHYRFHGMDLIYELLHQVKNMRLHLRHTDASFVGNKVYVRLHIDLIFNGRDIHFTIHIIIDKYNGKWFIHHIELIFN
protease stability score: 1.31

ETEEQYAEELARLYIEIWETGDEETLHKLADPDVRNDVDGKQLHGRESMIEFWRKLGISNVHFILHRLHVKTQGDFIDIHIDGQLDINGKVTRVEHRLHVEKYNGRWLLKEIYIKRD
protease stability score: 1.72

GDEEHHATEALERLIHSFETGDEELMTKLVDPHVRFEVNGKLFIGREDVMRWLKERLDRFDHHRVDFKHIRVVGDKVDIHLVLEVDFNGQHFSHDVRVRIIKINGRWRLTHMSIH
protease stability score: 2.3

GDLEHMLESMARLWTHEVLTGDEDTLRRLADPNVRFESHVNGQRVEFHGMEEVAEWMRKHLEEIRSRIELRTIEPQGNKAHVDGTTHLHYNGRTVIKKTHVHLSIVDGKIQRVELELR
protease stability score: -0.051

GDSEKDAERAIDIFLDTVRTGDERLIHELLDPTTILQVGDKQFHGREEADKWWHELLRKLGHTNIEMEVRDMKVQGDKVHLDTELRFNGRSTRIHVVIIKVNGRWLIEHIEIK
protease stability score: 1.23

GEDEHLAKRLLDLLIELFHTGDWDFISMLADPHVKLNVNGVQYHGRHDVTKLVHDEAEELRVHIQIHKVDWVGDKVHVDTRLVVNIDGQEHRTKTHIDMIVVNGRLNSMRIEIR
protease stability score: 1.19

GEDKELARKAVEEELESLLTGDEDRLKELIDPHTKVFINGREEIGMEALEDVLKKLGFKHIKVHHFDIRVQGDKVKNDLRGIFHVNGKDIDTQLIIISLKYNGQWFNHSLEWRTR
protease stability score: 0.595

GEEDEEFSKLMDETVKSLQTGDETHLKKLLDPNVILHVGDKEFHGRERAIDWYRHLRIHDMTIHHWEIQGDKAHVDGKLHVEVDGQHYDAKLHIVLEKINGQWYITSIHYK
protease stability score: 2.06

GEEHELTERAIEHFVDIWKTGDEDSLEENIDPHARIDFNGQQLHGREEMYRFMHKVNRQIKGIRLSFKYIDLRIYGDKVIVHNDGVVRVGDKVHDEQTKLEMRKVDGRWLFKSVTVFVL
protease stability score: 1.05

GEEQEDIKKFLEDDMEAWSTGDFRQLKRNMDPHVRIVINGRHLHGMETFEHFFEHLRVRITSLELKRVEAVGDKVSYDGELDFELDYNGRRLSQRTRVEFRIEKINGRWILHYVIFR
protease stability score: 0.329

GEHEDYILHIVDLFIHNILTGDWDAILKLMDPDVRFEIEINGRTIEIHGWEQIKRIMDEIKERADHLHIEIRDKFSVNGVAFFEGTIEIRVGDKRHREDVEIILFVVDGRIKIIRKRDV
protease stability score: 1.99

GEKEELSRLALHLWFRDYHTGDEDSAHRLLDPNVRLHVGDKHFVGRERFTRFWHEVYRELRIDDYILHSEDIQGDKIHMDGRIDGVVGDKREDFRTEIHLIWIDGKLHSEKRDKE
protease stability score: 0.902

GELEKLATTIVRLWVRHWYTGDEESSMRLMDPNARIIINGKEMHGRELYVHFLRRVLEHIRPESVDIEEVKIQGDYAHIDITEHRRIGDKEVTFRTEVSIIVINGKVTEVHMEIR
protease stability score: 1.7

GEMEKLLFKIFEEWMKLRKTGDEDVIAHLADPDYRWDVNGVDLHGMEHVKEFTEEFLRHLGFDHQEYRIRRFDHDGNKLRADTEVRIVVNGVDITHRTHIIIVQFNGKVKSVKERIR
protease stability score: 0.292

GENEQLIEEAVKMFMDIHHTGDWRDVHHLLDPHMRLDVNGVDYHGRDLWVRIAKEISEHARTEVRIRHLEIQGDKVIVHGQIILRIGDKTHVIDTRHIIIKINGRWKLHSVDIH
protease stability score: 1.32

From the NTF2 design screens of Basanta et al. (2020)
